Test results as given in the supplement of paper PMC9170038.

System: K4 kissing-loop RNA reporter
Assay: apparent KD of K4 kissing-loop reporter; higher = weaker reporter binding
Details: Eterna round: R107
Procedure: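 RNA-MaP round R107: designed RNA switches with theophylline, tryptophan, arginine or FMN aptamers are transcribed on-chip within common flanks. They are titrated with a labelled K4 kissing-loop RNA reporter in RNA-MaP buffer (100 mM Tris pH 7.5, 80 mM KCl, 4 mM MgCl2), without ligand or with the indicated ligand. Median apparent KD per design.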

[1] = input ligand: theophylline 20 uM
[2] = input ligand: tryptophan 2.4 mM
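Also: bound reporter read as fluorescence of individual clusters on recovered sequencing chips by microscopy, with normalized cluster intensities fitted with a binding model.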

| Sequence | apparent KD of K4 kissing-loop reporter (input ligand: FMN 200 uM) | apparent KD of K4 kissing-loop reporter (input ligand: arginine 13.2 mM) | apparent KD of K4 kissing-loop reporter (input ligand: none) | apparent KD of K4 kissing-loop reporter [1] | apparent KD of K4 kissing-loop reporter [2] |
| --- | --- | --- | --- | --- | --- |
| AGUGUUAGGUUAGAUACCAGCCGUUCGUGAAUAAUCCUCGAACCGCCAGUGAUGUUGGCAGGCCCUUGGCAGCUAACAGAACAGA [Maxeusla] | 243 nM | 216 nM | 207 nM | 170 nM | 223 nM |
| GCCAGUGAUGUUGGCAUUUCGAGCCAUGAAGGAGCGCACGGAAGUGCAGGUAGGUCGCAUGGUACUUAAGAUAUUAUCCUAAGUA [Atceis] | 210 nM | 162 nM | 192 nM | 177 nM | 129 nM |
| UAGUCCUAGUGAUGGUUAUCACGUGGUGGGCGAGGACCGGUACGGCCGCCACUCGACUUUGCAGUGAUGUUGCAAUCCGGACAAU [Exclusion - Tryptophan A (Freestyle 17)] | 194 nM | 215 nM | 240 nM | 224 nM | 258 nM |
| GGAUAGGACAGAGGAUAUCCUGAGGCAAGAAACUUGUCUCAUAAAGGAUGAAUCCUAGUGAUGUUAGGAGAAGGCUGUCCUAUCG [FmnBX 15 - #SwitchBubble #StaticStem #Palindromic] | 172 nM | 58.8 nM | 88 nM | 104 nM | 71.3 nM |
| CUUAAGGAGUGUCGUGCCGGACACUGGGAAGGAGCGCAAUUCUUUGCAGGUAGGUCGCCCAGUGAUGUUGGGUGGCGCUGUCGAA [Laatonbi] | 190 nM | 156 nM | 149 nM | 156 nM | 128 nM |
| AGAUUCUUUUUUUUAUUUAAGUUUUCAGAAGGAGCGUGGUAGUACACAGGUAGGUCGCUGAAUUUUGGGCUAGUGAUGUUAGUUA [whbob_SS_Arginine_A_sa115] | 180 nM | 188 nM | 221 nM | 231 nM | 135 nM |
| UUGGAGUGAUGUUCCAUAUCUUGAGCGGAAGGAGCGGCAAAAGUGCCAGGUAGGUCGCCGCAGAAGGUACCAGUGAUGUUGGAAA [Same State Arginine A GF 3] | 132 nM | 152 nM | 155 nM | 156 nM | 109 nM |
| UGUGUUGUUGUGAUGUUUAGUGUUGUUGGGCAGGAUAUCGUAGAGGCGAGAAGGGCUUGUGUGCUGUAUGAGUGAUGUUUGUAGG [xrrxmullin] | 372 nM | 238 nM | 428 nM | 262 nM | 322 nM |
| AGUGAUGUAUGGCGGUUUGUCACUUAAAAUCAGGAUAUAUAAACAAAUAGAAGGGAUGGCGGAGUGAUGUUCCGCCGGCCGCCAU [FMN A Exl V1] | 171 nM | 145 nM | 177 nM | 179 nM | 162 nM |
| GUAUAAGUGGGCGAUACCAGCUGUCGGUAGUGAUGUUAUUCAGCAGUCAGGAAGUUCGCUAGCCCUUGGCAGCGCCAGUGGUGAC [theeternabot_exclusion_KL_Theo_B_19] | 383 nM | 324 nM | 416 nM | 351 nM | 341 nM |
| UAUAUAUGAUGUGAUACCAGUGAAAAGCCAGUGAUGUUGGAAGAACUGGUAUAUAAAUAACACCCUUGGCAGCACAAUCACGUAU [theophylline b exclusion] | 271 nM | 261 nM | 266 nM | 382 nM | 268 nM |
| CCUAUCUCAUACGAUACCAGUCUAUUGUUACGAGUGAUGUUCGAAUAUUUGCCAUUCAAUGACCCUUGGCAGCGUAUGGGAUAGG [Ex Theophylline B K4 10] | 502 nM | 519 nM | 525 nM | 548 nM | 486 nM |
| AGACUACCACACUGUCAAUAGACAGUGUACUAGGAUAUGCUGAUAAGCAGAAGGAGUGAUGUUCCUGGGUAGUCAAUAAAAUAAU [FmnAX 13 U28+G67] | 507 nM | 388 nM | 486 nM | 514 nM | 404 nM |
| CAGUUCUAUUCCGGUAGUGAUGUUACCAAGCGAGGACCGGUACGGCCGCCACUCGAGUGACAGACGUACUGGUAUCACCCGCUUC | 159 nM | 172 nM | 164 nM | 186 nM | 142 nM |
| AUUCAUUUCAGAGGAUAUCGCUGGAGAGUGAUGUUCUCCCAUAGUCAGUGAUGUUGGCUAGCUAUGCGAGAAGGCUGUGGGUGGA [Same State FMN B GF 28] | 143 nM | 396 nM | 397 nM | 356 nM | 384 nM |
| UACUGGGCGAGUGAUGUUCGCUCACGUGAUACCAGUGCCAUCCAACACCCUUGGCAGCACGCGGGCAGUGAUGUUGUCCUUGUAU [Exclusion Theophylline A GF 5] | 127 nM | 112 nM | 123 nM | 129 nM | 111 nM |

| Sequence | apparent KD of K4 kissing-loop reporter (input ligand: FMN 200 uM) | apparent KD of K4 kissing-loop reporter (input ligand: arginine 13.2 mM) | apparent KD of K4 kissing-loop reporter (input ligand: none) | apparent KD of K4 kissing-loop reporter [1] | apparent KD of K4 kissing-loop reporter [2] |
| --- | --- | --- | --- | --- | --- |
| GGCAGUGAUGUUGCCUAAGCAACGCAUGCGGAGGAUAUUCGUUCGGGAAGAAGGCCGCAGCGUUCUCUCGAGUGAUGUUCGAGUA [Same State FMN A GF 21] | 161 nM | 176 nM | 176 nM | 171 nM | 166 nM |
| CGCGCGCGUUGAGAGGUGCGCGCGAAUGAUACCAGUAUAUAAGAAUACCCUUGGCAGCAUAAGAAAGAUAUAGUGAUGUUGUAUA [SSTheophA.F] | 346 nM | 130 nM | 250 nM | 308 nM | 228 nM |
| AAACAUUGGUCGGAUACCAGCUUGAUCGGAAAACGAUCUGCUGGAGUGAUGUUCCAAUAAAGCCCUUGGCAGCCGACCGAUGAAA [MAT - Same State Theophlline B - Mod of Eli - D14] | 814 nM | 679 nM | 1070 nM | 747 nM | 780 nM |
| AGUGAUGUGGGAAGGAGCGCUACAAGACUUCAGUGAUGUUGAAGUGAUGAUUUAGUGUUGUAGCAGGUAGGUCGCCUAGAUGUUA [KL-XARG-B9] | 60.9 nM | 27 nM | 44.9 nM | 36.2 nM | 39.1 nM |
| GGAUAGGAUAGAGGAUAUGGUAGUGAUGUUACCAAACUGGUUAAACAUGUCAGAAAACUGGCAUGACCAGAAGGUUGUCCUAUCG [FmnBX 27 U9+U75] | 80.5 nM | 57.1 nM | 70.5 nM | 66.9 nM | 61.5 nM |
| UAGACCAGUGAUGUUGGUUCCAAGACGGAUACCAGACUGGCAGAAGUCCCUUGGCAGCUGUAGACCUUGUGAGCUACAAGGUCGG [Theo A SS t2] | 923 nM | 184 nM | 440 nM | 170 nM | 295 nM |
| CUAAUCGCUCAUGAUACCAGCUAGUGAUGUUAGCCCGUCAAGCUGAGGGUUCAUCCACCCAGCCCUUGGCAGCAUUCUCGGUCAG [theeternabot_exclusion_KL_Theo_B_8] | 441 nM | 313 nM | 387 nM | 449 nM | 364 nM |
| UAAGAAUAAGUAGCAGUGAUGUUGCUACUGCGAGGACCGGUACGGCCGCCACUCGAGUCCUCGAAGCAUCACUGAACGAGGAAUA [whbob_SS_Tryp_A_m12] | 272 nM | 229 nM | 278 nM | 326 nM | 360 nM |
| CUAACGGUACGAGUGAUGUUCAGCAAGGAUACCAGCGGACAGUCACGCCCUUGGCAGCCUAGUUUCUACCCGUCGGAAUUUCUUA [theeternabot_sameState_KL_Theo_A_2] | 623 nM | 366 nM | 599 nM | 461 nM | 527 nM |
| AAAUUUUCAAGUGAUACCAGACAUUUCUAUUACAUUAAUAUAGCUAAGUGAUGUUUAGCAGUCCCUUGGCAGCACUAUUUAAUUA [JR_SSTheophyB_Sub014] | 201 nM | 265 nM | 253 nM | 355 nM | 216 nM |
| UCCACGCUUAGAGGAUAUCGGAUUAGAGUGAUGUUCUAAAGAAGCCCAGUGAUGUUGGAUGGUAUACGAGAAGGCUGAGGCGUGG [Same State FMN B GF 3] | 229 nM | 629 nM | 725 nM | 588 nM | 492 nM |
| UUUUAGGUAUCUGAUACCAGAGAAAAUAUAUGUAGUGAUGUUAUAUACAAAAUAAUUAAGCUCCCUUGGCAGCAGUUUUAAUUUU [AstrosExc-TheB#5] | 872 nM | 730 nM | 902 nM | 763 nM | 633 nM |
| AGUGAUGUGGGAAGGAGCGGUACAUGACUUCAGUGAUGUUGAAGUGAUGAUUUAGUGAUGUGCCAGGUAGGUCGCCUAGAUGUUA [KL-XARG-B7] | 79.8 nM | 36.7 nM | 68.1 nM | 41.8 nM | 51 nM |
| AGACUACCACACUGUCAAUAGACAGUGAGCUAGGAUAUGCUGAUAAGCAGAAGGAGUGAUGUUCCAAGGUAGUCAAUAAAAUAAU [FmnAX 13 G29+A66] | 209 nM | 203 nM | 221 nM | 267 nM | 209 nM |
| ACGCUAGCUACCGAAAGGUAGCUAGCGAGUGAGGAUAUGUGGAAACACAGAAGGCACAGCGCAGUGAUGUUGUGCGGCGAAAGCC [whbob_SS_FMNA__2th166] | 462 nM | 275 nM | 418 nM | 231 nM | 803 nM |
| UAUUAAUUGACGGCCGCCACUAUGGUGAUUUAUUUGUUUGAGUGAUGUUUUGAUGUUUGAUUUUGUAGGACCGGGUUAUGUGUUA [pokcmullin] | 962 nM | 738 nM | 853 nM | 748 nM | 680 nM |
